Test results published in the supplement of paper PMC9732359.
± gives the uncertainty stated by the source.

Assay: protein stability index of a GFP-peptide fusion (yeast GPS) (PSI 1-4); higher = more stable; sorted into four equal gates, so the index is relative within each strain
Procedure, shortened: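 Plasmids in a pooled yeast library fused tiled 17-residue yeast protein peptides downstream of GFP and also expressed Cherry. Mid-log cultures grown without leucine were sorted into four equal gates by GFP/Cherry fluorescence ratio. Each gate's plasmids were PCR-amplified and Illumina-sequenced, and reads were matched to strains by barcodes. The protein stability index is derived by multiplying each gate's read frequency by its gate number and summing the results.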

## LPYLSDTCAVSFDAVSD [YJR042W/NUP85]
doa10∆
  protein stability index: 2.44 ± 0.1
pdr5∆
  protein stability index: 2.63 ± 0.059
san1∆
  protein stability index: 2.55 ± 0.078
ubr1∆
  protein stability index: 2.87 ± 0.05

## LENSSRSPRVVTNALDN [NUT1]
doa10∆
  protein stability index: 2.85 ± 0.06
pdr5∆
  protein stability index: 2.51 ± 0.058
san1∆
  protein stability index: 2.279 ± 0.016
ubr1∆
  protein stability index: 2.74 ± 0.057

## GIAIGLNKGKKVTSMTP [RPL36A]
doa10∆
  protein stability index: 3.08 ± 0.18
pdr5∆
  protein stability index: 3.13 ± 0.12
ubr1∆
  protein stability index: 3.15 ± 0.1

## TLQDIGFYQIKKIVDSK [YMR129W/POM152]
doa10∆
  protein stability index: 2.64 ± 0.095
pdr5∆
  protein stability index: 2.68 ± 0.1
san1∆
  protein stability index: 2.89 ± 0.17
ubr1∆
  protein stability index: 2.97 ± 0.12

## NLEESSKLDIYTQQQAL [RET1]
doa10∆
  protein stability index: 2.9 ± 0.087
pdr5∆
  protein stability index: 2.77 ± 0.078
san1∆
  protein stability index: 2.47 ± 0.07
ubr1∆
  protein stability index: 2.94 ± 0.079

## EPYARVSGDLNPIHVSR [FAS1]
doa10∆
  protein stability index: 2.64 ± 0.14
pdr5∆
  protein stability index: 2.92 ± 0.092
san1∆
  protein stability index: 2.76 ± 0.086
ubr1∆
  protein stability index: 2.83 ± 0.1

## LQQQTPVTIWLFEQIGI [SME1]
doa10∆
  protein stability index: 1.66 ± 0.045
pdr5∆
  protein stability index: 1.87 ± 0.041
san1∆
  protein stability index: 1.64 ± 0.072
ubr1∆
  protein stability index: 2 ± 0.042

## QGRRLGESIMSEEPTDF [MCD1]
doa10∆
  protein stability index: 3.21 ± 0.11
pdr5∆
  protein stability index: 3.36 ± 0.13
san1∆
  protein stability index: 3.32 ± 0.069
ubr1∆
  protein stability index: 3.23 ± 0.092

## QHPFPLAHSQHRCAIRS [SSN2]
doa10∆
  protein stability index: 1.76 ± 0.05
pdr5∆
  protein stability index: 1.42 ± 0.042
san1∆
  protein stability index: 1.51 ± 0.091
ubr1∆
  protein stability index: 1.27 ± 0.034

## QGDGLLTKLQKYGAAVR [RPN7]
doa10∆
  protein stability index: 2.93 ± 0.17
pdr5∆
  protein stability index: 2.89 ± 0.14
san1∆
  protein stability index: 3.17 ± 0.12
ubr1∆
  protein stability index: 3.28 ± 0.19

## ENANADLENKFNRLKKQ [YIL149C/MLP2]
doa10∆
  protein stability index: 3.06 ± 0.067
pdr5∆
  protein stability index: 3.07 ± 0.057
san1∆
  protein stability index: 3.09 ± 0.068
ubr1∆
  protein stability index: 3 ± 0.037

## LCLMTWKEVMFDPSKDV [CDC53]
doa10∆
  protein stability index: 2.52 ± 0.079
pdr5∆
  protein stability index: 2.72 ± 0.068
san1∆
  protein stability index: 2.83 ± 0.097
ubr1∆
  protein stability index: 3.09 ± 0.073

## KDRFDIDEKSQFVETIV [RPN2]
doa10∆
  protein stability index: 2.15 ± 0.05
pdr5∆
  protein stability index: 2.48 ± 0.069
san1∆
  protein stability index: 1.93 ± 0.066
ubr1∆
  protein stability index: 2.17 ± 0.059

## AFQLADGIHYILNHIGQ [PRP8]
doa10∆
  protein stability index: 2.71 ± 0.14
pdr5∆
  protein stability index: 2.97 ± 0.16
san1∆
  protein stability index: 2.71 ± 0.24
ubr1∆
  protein stability index: 2.65 ± 0.14

## MQTALRRLPEDESYARA [QCR7]
doa10∆
  protein stability index: 2.78 ± 0.058
pdr5∆
  protein stability index: 2.5 ± 0.066
san1∆
  protein stability index: 2.34 ± 0.05
ubr1∆
  protein stability index: 2.39 ± 0.044

## IESNKLAGVLYESRNVA [RRP6]
doa10∆
  protein stability index: 2.93 ± 0.062
pdr5∆
  protein stability index: 3.11 ± 0.074
san1∆
  protein stability index: 3.07 ± 0.1
ubr1∆
  protein stability index: 3.08 ± 0.062

## LPGKVNTKEEFAAAPND [SNF5]
doa10∆
  protein stability index: 2.66 ± 0.084
pdr5∆
  protein stability index: 2.91 ± 0.061
san1∆
  protein stability index: 2.84 ± 0.058
ubr1∆
  protein stability index: 2.85 ± 0.067

## EHFSDEETYEEKPQFKD [RPO26]
doa10∆
  protein stability index: 3.51 ± 0.1
pdr5∆
  protein stability index: 3.35 ± 0.2
san1∆
  protein stability index: 3.25 ± 0.15
ubr1∆
  protein stability index: 3.34 ± 0.1

## LKFFLVDENETVLESLG [LIN1]
doa10∆
  protein stability index: 3.26 ± 0.27
pdr5∆
  protein stability index: 2.94 ± 0.092
san1∆
  protein stability index: 2.9 ± 0.18
ubr1∆
  protein stability index: 3.04 ± 0.15

## LDSGDDQPQSSEAKRTK [BRR2]
doa10∆
  protein stability index: 3.31 ± 0.057
pdr5∆
  protein stability index: 3.26 ± 0.057
san1∆
  protein stability index: 3.25 ± 0.048
ubr1∆
  protein stability index: 3.25 ± 0.043

## HILLTELLAYQFASPVR [FAS2]
doa10∆
  protein stability index: 1.81 ± 0.019
pdr5∆
  protein stability index: 1.7 ± 0.018
san1∆
  protein stability index: 1.81 ± 0.027
ubr1∆
  protein stability index: 1.768 ± 0.017

## NLEIPAYEFDGDKVIVG [RIP1]
doa10∆
  protein stability index: 2.71 ± 0.07
pdr5∆
  protein stability index: 2.61 ± 0.093
san1∆
  protein stability index: 2.65 ± 0.064
ubr1∆
  protein stability index: 2.72 ± 0.077

## FQLVNDVMDELITSSAR [SIR3]
doa10∆
  protein stability index: 3.36 ± 0.14
pdr5∆
  protein stability index: 2.9 ± 0.087
san1∆
  protein stability index: 3.42 ± 0.068
ubr1∆
  protein stability index: 3.23 ± 0.071

## ATFLKLAAPQLVQMYIG [RPT5]
doa10∆
  protein stability index: 1.31 ± 0.25
san1∆
  protein stability index: 1.2 ± 0.21
ubr1∆
  protein stability index: 1.44 ± 0.23

## PNMSICIFGDAFDVDRA [RPL1A]
doa10∆
  protein stability index: 2.78 ± 0.071
pdr5∆
  protein stability index: 2.52 ± 0.072
san1∆
  protein stability index: 1.78 ± 0.084
ubr1∆
  protein stability index: 2.4 ± 0.089

## SVILSVISMFVLPIFTT [YML031W/NDC1]
doa10∆
  protein stability index: 1.29 ± 0.045
pdr5∆
  protein stability index: 1.5 ± 0.059
san1∆
  protein stability index: 1.3 ± 0.092
ubr1∆
  protein stability index: 1.93 ± 0.043

## ELVFSKGVYLILSEILC [YML103C/NUP188]
doa10∆
  protein stability index: 1.93 ± 0.049
pdr5∆
  protein stability index: 1.54 ± 0.048
san1∆
  protein stability index: 1.71 ± 0.07
ubr1∆
  protein stability index: 1.51 ± 0.026

## DPLAKVNVLLQSYFSQL [BRR2]
doa10∆
  protein stability index: 1.28 ± 0.049
pdr5∆
  protein stability index: 1.78 ± 0.054
san1∆
  protein stability index: 1.58 ± 0.092
ubr1∆
  protein stability index: 1.54 ± 0.05

## SFEETVEILFEAGASAE [RPO21]
doa10∆
  protein stability index: 2.7 ± 0.11
pdr5∆
  protein stability index: 2.77 ± 0.09
san1∆
  protein stability index: 2.89 ± 0.063
ubr1∆
  protein stability index: 2.51 ± 0.093

## SYKMNSSAADITMESVH [PRP8]
doa10∆
  protein stability index: 3.32 ± 0.11
pdr5∆
  protein stability index: 3.19 ± 0.08
san1∆
  protein stability index: 3.21 ± 0.095
ubr1∆
  protein stability index: 3.17 ± 0.067

## NVDKNLNEIKEHKIVVL [RPN14]
doa10∆
  protein stability index: 2.39 ± 0.085
pdr5∆
  protein stability index: 2.38 ± 0.069
san1∆
  protein stability index: 2.42 ± 0.1
ubr1∆
  protein stability index: 2.74 ± 0.1

## LPTNPTLDKPNAEATKE [CSE2]
doa10∆
  protein stability index: 2.91 ± 0.072
pdr5∆
  protein stability index: 2.87 ± 0.062
san1∆
  protein stability index: 2.89 ± 0.046
ubr1∆
  protein stability index: 2.85 ± 0.066

## CAACHSLDRVAWRTLVG [CYT1]
doa10∆
  protein stability index: 1.29 ± 0.052
pdr5∆
  protein stability index: 1.32 ± 0.047
san1∆
  protein stability index: 1.34 ± 0.1
ubr1∆
  protein stability index: 1.26 ± 0.042

## KLLAISKFNNADDVFTG [RPC31]
doa10∆
  protein stability index: 3.03 ± 0.15
pdr5∆
  protein stability index: 2.9 ± 0.2
san1∆
  protein stability index: 2.92 ± 0.13
ubr1∆
  protein stability index: 2.57 ± 0.12

## LSRAEYDSDSDSSVEDS [LIN1]
doa10∆
  protein stability index: 3.14 ± 0.17
pdr5∆
  protein stability index: 2.96 ± 0.16
san1∆
  protein stability index: 2.87 ± 0.085
ubr1∆
  protein stability index: 3.16 ± 0.084

## DEAEGRFEVINNETEQL [SMC1]
doa10∆
  protein stability index: 2.07 ± 0.072
pdr5∆
  protein stability index: 2.56 ± 0.076
san1∆
  protein stability index: 3.04 ± 0.14
ubr1∆
  protein stability index: 2.82 ± 0.1

## VVDFKNKENDNVPSTKF [SNF12]
doa10∆
  protein stability index: 3.6 ± 0.19
pdr5∆
  protein stability index: 3.23 ± 0.25
san1∆
  protein stability index: 3.04 ± 0.14

## INDRNDRAIRKTCQWYS [DIS3]
doa10∆
  protein stability index: 3.21 ± 0.087
pdr5∆
  protein stability index: 3.09 ± 0.097
san1∆
  protein stability index: 2.98 ± 0.068
ubr1∆
  protein stability index: 3.25 ± 0.12

## SRSTDNFHNSKKRMNSN [RRI1]
doa10∆
  protein stability index: 2.11 ± 0.06
pdr5∆
  protein stability index: 2.4 ± 0.081
san1∆
  protein stability index: 2.26 ± 0.1
ubr1∆
  protein stability index: 2.61 ± 0.081

## NTFVTRLNNVFVIGEQG [RPS4A]
doa10∆
  protein stability index: 3.29 ± 0.096
pdr5∆
  protein stability index: 2.89 ± 0.09
san1∆
  protein stability index: 3.22 ± 0.13
ubr1∆
  protein stability index: 3.16 ± 0.094

## IIDEIKCIPKKGTVFQF [POP4]
doa10∆
  protein stability index: 1.6 ± 0.13
pdr5∆
  protein stability index: 1.56 ± 0.074
san1∆
  protein stability index: 1.86 ± 0.28
ubr1∆
  protein stability index: 1.3 ± 0.048

## MFNNHEIDTILSTLRME [RPN9]
pdr5∆
  protein stability index: 3.51 ± 0.2
san1∆
  protein stability index: 2.84 ± 0.13
ubr1∆
  protein stability index: 3.03 ± 0.071

## LEQLAQHTTESDNISRK [RPB2]
doa10∆
  protein stability index: 3.33 ± 0.12
pdr5∆
  protein stability index: 3.35 ± 0.12
san1∆
  protein stability index: 3.01 ± 0.076
ubr1∆
  protein stability index: 3.11 ± 0.13

## VYNLALKCAERQLTSME [NUT1]
doa10∆
  protein stability index: 2.38 ± 0.073
pdr5∆
  protein stability index: 2.2 ± 0.052
san1∆
  protein stability index: 2.09 ± 0.07
ubr1∆
  protein stability index: 2.31 ± 0.029

## IEITNSNDLCSQIFDQL [SRB8]
doa10∆
  protein stability index: 2.67 ± 0.057
pdr5∆
  protein stability index: 2.96 ± 0.074
san1∆
  protein stability index: 2.69 ± 0.059
ubr1∆
  protein stability index: 2.74 ± 0.043

## ATVVSTNHSAAASTPTT [PGD1]
doa10∆
  protein stability index: 2.91 ± 0.047
pdr5∆
  protein stability index: 3.12 ± 0.042
san1∆
  protein stability index: 2.98 ± 0.035
ubr1∆
  protein stability index: 3 ± 0.037

## IDDKTQNDELTMGMRAL [DIS3]
doa10∆
  protein stability index: 2.74 ± 0.083
pdr5∆
  protein stability index: 2.83 ± 0.068
san1∆
  protein stability index: 2.87 ± 0.058
ubr1∆
  protein stability index: 3 ± 0.059

## AIVPGQSISGTLELSAQ [SWP82]
doa10∆
  protein stability index: 3.43 ± 0.094
pdr5∆
  protein stability index: 3.13 ± 0.11
san1∆
  protein stability index: 2.98 ± 0.14
ubr1∆
  protein stability index: 3.07 ± 0.092

## QDDDDYVDTATAKRKSR [IRR1]
doa10∆
  protein stability index: 2.83 ± 0.061
pdr5∆
  protein stability index: 2.94 ± 0.054
san1∆
  protein stability index: 2.15 ± 0.083
ubr1∆
  protein stability index: 2.93 ± 0.039

## RPNRRGPRNTEEKGWVP [RPS2]
doa10∆
  protein stability index: 3.42 ± 0.15
pdr5∆
  protein stability index: 3.49 ± 0.13
san1∆
  protein stability index: 3.68 ± 0.12
ubr1∆
  protein stability index: 3.66 ± 0.079

## KVNPNIMNMIENVEKKE [SMC2]
doa10∆
  protein stability index: 2.46 ± 0.13
pdr5∆
  protein stability index: 2.71 ± 0.12
san1∆
  protein stability index: 2.36 ± 0.13
ubr1∆
  protein stability index: 2.5 ± 0.064

## TTLHGPGFQLPNRITLT [SRB8]
doa10∆
  protein stability index: 2.9 ± 0.099
pdr5∆
  protein stability index: 2.84 ± 0.1
san1∆
  protein stability index: 2.74 ± 0.068
ubr1∆
  protein stability index: 2.89 ± 0.061

## VDYGGAEWSLVRIYSGL [SNU114]
ubr1∆
  protein stability index: 3.66 ± 0.18
